Measured values published in paper PMC3439888 (Nucleic Acids Research, 2012).

Target: the molecule itself
Assay: SEC

B1: Lac repressor (natural protein)
chain: MKPVTLYDVAEYAGVSYQTVSRVVNQASHVSAKTREKVEAAMAELNYIPNRVAQQLAGKQSLLIGVATSSLALHAPSQIVAAIKSRADQLGASVVVSMVERSGVEACKAAVHNLLAQRVSGLIINYPLDDQDAIAVEAACTNVPALFLDVSDQTPINSIIFSHEDGTRLGVEHLVALGHQQIALLAGPLSSVSARLRLAGWHKYLTRNQIQPIAEREGDWSAMSGFQQTMQMLNEGIVPTAMLVANDQMALGAMRAITESGLRVGADISVVGYDDTEDSSCYIPPLTTIKQDFRLLGQTSVDRLLQLSQGQAVKGNQLLPVSLVKRKTTLAPNTQTASPRALADSLMQLARQVSRLESGQ
Question: How did the “stoichiometry N” value turn out when B1 was run?
Answer: The value was 4.
